Reference: US8481255B2, “Scytovirin domain 1 related polypeptides” (The United States of America, as represented by the …, priority 2005, dated 2013)

Columns and labels:
[1] = molecular target: HIV-1 gp41 ectodomain (Human immunodeficiency virus type 1 group M subtype B, UniProt P03375); conditions: 100 ng/well gp41, absorbance at 450 nm
Description: (§1) Briefly, the 100 ng/well of either gp120 and gp41 proteins was bound to a 96-well plate, which was then rinsed with PBS containing 0.05% Tween 20 (TPBS) and blocked with BSA. Between each subsequent step, the plate was again rinsed with TPBS (x3). […] Upon addition of the horseradish peroxidase substrate buffer and color formation, the reaction was stopped by the addition of 2M H2SO4 (after 5 minutes for the gp120 plate and 15 minutes for the gp41 plate) and absorbance was measured at 450 nm for each well.

[2] = molecular target: HIV-1 gp120 (Human immunodeficiency virus type 1 group M subtype B, UniProt P03375); conditions: 100 ng/well gp120, absorbance at 450 nm
Description: as §1

[3] = system: CEM-SS cells
Excerpt: (§2) The protocol followed was the same as described in Gulakowski et al., J. Virol. Methods, 33: 87-100 (1991).

[4] = system: HIV-1RF; assay: XTT-tetrazolium based anti-HIV assay, acute HIV-1 infection in CEM-SS cells; format: cell-based; conditions: T-tropic laboratory strain HIV-1RF in CEM-SS cells; read-out: EC50 against HIV-1RF
Excerpt: as §2
The deletion mutants were subjected to the XTT-tetrazolium based assay as described in Example 2.

[5] = system: HIV gp120; conditions: 100 μM sugar or 100 μg/well α-acid glycoprotein; 100 ng/well peptide
Description: (§3) Scytovirnin specifically binds to a α-1-2, α1-2, α1-6-linked tetramannoside, a substructure of oligomannose-8 and -9 found on HIV envelope glycoproteins gp120 and gp41 (Adams et al., Chem. Biol., 11(6): 875-881 (2004)). […] Briefly, a 96-well plate was prepared as described in Example 1 with glycosylated gp120 or gp41 and 100 ng/well of scytovirin or a scytovirin-derived peptide. […] Each well also contained (a) various concentrations of oligomannose-8, (b) 100 μM of glucose, mannose, galactose, xylose, or N-acytylglucosamine, or (c) 100 μg/well α-acid glycoprotein (to act as a carrier for sialic acid). The plate was then washed and visualized using anti-scytovirin polyclonal antibodies as described in Example 1.

[6] = system: gp41; conditions: various concentrations of oligomannose-8
Description: as §3

## SD1: polypeptide of SEQ ID NO: 1, derived from amino acids 1-48 of scytovirin (scytovirin domain 1) (GSGPTYSWNEANNPGGPNRCSNNKQCDGARTCSSSGFCQGTSRKPDPG)
[1]
  binding affinity to gp41 (ELISA): approximately the same affinity
[2]
  binding affinity to gp120 (ELISA): approximately the same affinity
[3]
  toxicity to the CEM-SS cell line, not detected at concentrations up to: > 10,000 nM
[4]
  EC50: 6.6 nM
[5]
  inhibition of binding to gp120 by glucose, mannose, galactose, xylose, N-acytylglucosamine, α-acid glycoprotein with sialic acid: not able to inhibit binding
[6]
  inhibition of binding to gp41 by oligomannose-8: able to inhibit the binding of SD1 to gp41 in a concentration-dependent manner

B1: scytovirin: antiviral scytovirin polypeptide, SEQ ID NO: 4 (protein, listed as Scytonema varium)
chain: GSGPTYCWNEANNPGGPNRCSNNKQCDGARTCSSSGFCQGTSRKPDPGPKGPTYCWDEAKNPGGPNRCSNSKQCDGARTCSSSGFCQGTAGHAAA
[1]
  binding affinity to gp41 (ELISA): approximately the same affinity
[2]
  binding affinity to gp120 (ELISA): approximately the same affinity
[3]
  toxicity to the CEM-SS cell line, not detected at concentrations up to: > 10,000 nM
[4]
  EC50: 7.5 nM
